Data from paper PMC10545747 (2023).

Legend:
[1] = biological target: T1, XQ2 (macrocyclic (cyclic) peptide); test: SPR
[2] = biological target: T1, XQ2; test: MST; 2 M (NH4)2SO4

Kd [1] [µM]	Kd [2] [µM]	Binder
86.5	–	N-terminally truncated human cGAS (hcGAS-ΔN, residues 147–522) (domain or fragment) PVSAPILVRRDAAPGASKLRAVLEKLKLSRDDISTAAGMVKGVVDHLLLRLKCDSAFRGVGLLNTGSYYEHVKISAPNEFDVMFKLEVPRIQLEEYSNTRAYYFVKFKRNPKENPLSQFLEGEILSASKMLSKFRKIIKEEINDIKDTDVIMKRKRGGSPAVTLLISEKISVDITLALESKSSWPASTQEGLRIQNWLSAKVRKQLRLKPFYLVPKHAKEGNGFQEETWRLSFSHIEKEILNNHGKSKTCCENKEEKCCRKDCLKLMKYLLEQLKERFKDKKHLDKFSSYHVKTAFFHVCTQNPQDSQWDRKDLGLCFDNCVTYFLQCLRTEKLENYFIPEFNLFSSNLIDKRSKEFLTKQIEYERNNEFPVFDEF
–	1.8	fluorescent labeled hcGAS (enzyme, fluorescent label (dye and site not stated)) MQPWHGKAMQRASEAGATAPKASARNARGAPMDPTESPAAPEAALPKAGKFGPARKSGSRQKKSAPDTQERPPVRATGARAKKAPQRAQDTQPSDATSAPGAEGLEPPAAREPALSRAGSCRQRGARCSTKPRPPPGPWDVPSPGLPVSAPILVRRDAAPGASKLRAVLEKLKLSRDDISTAAGMVKGVVDHLLLRLKCDSAFRGVGLLNTGSYYEHVKISAPNEFDVMFKLEVPRIQLEEYSNTRAYYFVKFKRNPKENPLSQFLEGEILSASKMLSKFRKIIKEEINDIKDTDVIMKRKRGGSPAVTLLISEKISVDITLALESKSSWPASTQEGLRIQNWLSAKVRKQLRLKPFYLVPKHAKEGNGFQEETWRLSFSHIEKEILNNHGKSKTCCENKEEKCCRKDCLKLMKYLLEQLKERFKDKKHLDKFSSYHVKTAFFHVCTQNPQDSQWDRKDLGLCFDNCVTYFLQCLRTEKLENYFIPEFNLFSSNLIDKRSKEFLTKQIEYERNNEFPVFDEF
